From publication PMC11980582, “The human microbiome-derived antimicrobial lugdunin self-regulates its biosynthesis by a feed-forward mechanism”

How the values were obtained:
[1] = test system: T1, LugJ (Staphylococcus lugdunensis IVK28), ORF:22db99f4; assay: EMSA; conditions: 10 mM Tris/HCl pH 7.4, 10 mM NaCl (LugJ) or 100 mM NaCl (LugR), 0.1 mg/mL BSA, 1 mM DTT, 1 mM EDTA, 10% glycerol, 30 min at 25 C, 20 ul; 5% native PAGE
T1 sequence: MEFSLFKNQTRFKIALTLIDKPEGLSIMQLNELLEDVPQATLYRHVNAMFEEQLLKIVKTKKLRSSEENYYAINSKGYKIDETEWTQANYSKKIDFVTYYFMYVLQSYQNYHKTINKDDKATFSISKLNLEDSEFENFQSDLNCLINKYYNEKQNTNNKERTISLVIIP

[2] = test system: T1, LugJ (Staphylococcus lugdunensis IVK28), ORF:22db99f4; assay: competition; conditions: 10 mM Tris/HCl pH 7.4, 10 mM NaCl (LugJ) or 100 mM NaCl (LugR), 0.1 mg/mL BSA, 1 mM DTT, 1 mM EDTA, 10% glycerol, 30 min at 25 C, 20 ul; 5% native PAGE
[3] = biological target: T2, LugR (Staphylococcus lugdunensis IVK28, UniProt A0A292DID1 1-196); assay: competition; 2 uM LugR; 50 or 100 ng competitor vs PlugR; 10 mM Tris/HCl pH 7.4, 10 mM NaCl (LugJ) or 100 mM NaCl (LugR), 0.1 mg/mL BSA, 1 mM DTT, 1 mM EDTA, 10% glycerol, 30 min at 25 C, 20 ul; 5% native PAGE; conditions: protein: recombinant; tags: 8xHis (N-terminal, pET-28a derived); chain copies: 2; label: none; blunt
T2 sequence: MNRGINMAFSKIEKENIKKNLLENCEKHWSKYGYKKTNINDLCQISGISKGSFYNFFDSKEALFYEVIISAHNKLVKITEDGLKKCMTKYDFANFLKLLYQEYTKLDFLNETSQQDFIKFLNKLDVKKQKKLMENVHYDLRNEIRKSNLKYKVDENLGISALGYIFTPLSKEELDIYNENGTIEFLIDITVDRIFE

In the case of “ACATAACACCTCACTTTATACATAATAATTGATTTTTAAATAAATGTACAGTAACATTATCATTATCAATAATGATAATGGAGGGTGAAAATG (double strand) [PlugI promoter fragment]”, the binding [1] is reported as “binds”.

In the case of “ACATAACACCTCACTTTATACATAATAATTGATTTTTAAATAAATGTACAGTAACATTATCATTATCAATAATGATAATGGAGGGTGAAAATG (double strand) [cold PlugI]”, the binding [2] is reported as “binds”.

B1: PallugR native (dsDNA)
DNA 1: GATAAAAGTGACTAGAAAAATTTATTTGGTCATAAATGAATAG
DNA 2: CTATTCATTTATGACCAAATAAATTTTTCTAGTCACTTTTATC
B1: binds [3].
